Source: patent US20230348589A1

Experiments:
[1] = molecular target: A138 iCAPS (purified human CB1 with ICL3 native sequence replaced with protein 1 sequence, in lipid bilayer) (human) (UniProt P21554); assay: ELISA, purified IgG on CB1 iCAPS
[2] = molecular target: A139 iCAPS (purified human CB1 with ICL3 native sequence replaced with BRIL, in lipid bilayer) (human) (UniProt P21554); assay: ELISA, purified IgG on CB1 iCAPS
Sequence of A139 iCAPS (purified human CB1 with ICL3 native sequence replaced with BRIL, in lipid bilayer) (human) (P21554 whole entry): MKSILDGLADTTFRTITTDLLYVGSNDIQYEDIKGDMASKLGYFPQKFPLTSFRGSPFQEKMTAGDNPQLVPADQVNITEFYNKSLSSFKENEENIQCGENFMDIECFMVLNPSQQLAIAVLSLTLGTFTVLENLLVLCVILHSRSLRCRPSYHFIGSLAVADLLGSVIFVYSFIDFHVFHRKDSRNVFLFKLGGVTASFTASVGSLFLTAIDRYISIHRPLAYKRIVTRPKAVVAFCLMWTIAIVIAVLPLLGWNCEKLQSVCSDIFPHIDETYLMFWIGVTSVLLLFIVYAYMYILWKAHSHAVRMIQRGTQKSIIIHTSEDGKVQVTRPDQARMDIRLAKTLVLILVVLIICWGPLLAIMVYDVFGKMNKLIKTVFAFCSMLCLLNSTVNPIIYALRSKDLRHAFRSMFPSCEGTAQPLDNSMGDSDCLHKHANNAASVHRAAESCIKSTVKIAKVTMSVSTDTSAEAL

Sequence of A138 iCAPS (purified human CB1 with ICL3 native sequence replaced with protein 1 sequence, in lipid bilayer) (human) (P21554 whole entry): as above

Row | Binder | EC50 [1] [nM] | EC50 [2] [nM]
1 | PA2R3-P1F1 (chimeric) (antibody, V domains shown) VH: EVQLQQSGAELMKPGASVKISCKATGYTFSSYWIEWVKQRPGHGLEWIGEILPGSGSTNYNEKFKGKATFTADTSSNTAYMQLSSLTSEDSAVYYCARGAWLLSYWYFDVWGAGTSVTVSS VL: DIQMMQSTSSLSASLGDRVTISCSASQGISNYLNWYQQKPDGTVKLLIYYTSSLHSGVPSRFSGSGSGTQFSLKINSLQPEDFGSYYCQHHYGTPYTFGGGTKLELKR | 1.3 | 1.1
2 | PA2LR3-P1G6 (chimeric) (antibody, V domains shown) VH: EVQLQQSGAELVRPGSSVKISCKASGYAFSYYWMNWVKQRPGQGLEWIGQIYPGDGDTNYNGKFKGKATLTVDKSSSTAYMQLSSLTSEDSAVYFCARSHGNYFAYWGQGTLVTVSA VL: DIVLSQSPAIMSASLGERVTMTCTASSSVSSSYLHWYQQKPGSSPKLWIYSTSNLASGVPARFSGSGSGTSYSLTISRMEAEDAATYYCQQWSSYPLTFGAGTKLELKR | 81 | 35
3 | PA2LR3-P2D3 (chimeric) (antibody, human IgG1, kappa, V domains shown) VH: EVQLQQSGAELVRPGSSVKISCKASGYAFSYYWMNWVKQRPGQGLEWIGQIYPGDGDTNYNGKFKGKATLTADKSSSTAYMQLSSLTSEDSAVYFCARSHGSYFAYWGQGTLVTVSA VL: DIELAQSPASLAVSLGQRATISCRASESVDSYGNSFMHWYQQKPGQPPKLLIYLASNLESGVPARFSGSGSRADFTLTIDPVEADDAATYYCLQYASSPPTFGAGTKLEIKR | 4.9 | 2.6
4 | PA2LR3-P3B10 (chimeric) (antibody, V domains shown) VH: EVQLQQSGAELVRPGSSVKISCKASGYAFSYYWMNWVKQRPGQGLEWIGQIYPGDGDTNYNGKFKGKATLTADKSSSTAYMQLSSLTSEDSAVYFCARSHGNYFPYWGQGTLVTVSA VL: DIVITQSPAIVSASLGERVTMTCTASSSVSSSYLHWYQQKPGSSPKLWIYSTSNLASGVPARFSGSGSGTSYSLTISSMEAEDAATYYCQQWSSYPLTFGAGTKLEIKR | 1.4 | 0.78
5 | PA2LR3-P4C6 (chimeric) (antibody, V domains shown) VH: EVQLQQSGAELVRPGSSVKISCKASGYAFSYYWMNWVKQRPGQGLEWIGQIYPGDGDTNYNGKFKGKATLTADKSSSTAYMQLSSLTSEDSAVYFCARSHGNYFPYWGQGTLVTVSA VL: DIVITQSPAIVSASLGERVTMTCTASSSVSSSYLHWYQQKPGSSPKLWIYSTSNLASGVPARFSGSGSGTSYSLTISSMEAEDAATYYCQQWSSYPLTFGAGTKLEIKR | 0.4 | 0.4
6 | PA2LR3-P2B8 (chimeric) (antibody, V domains shown) VH: EVQLQQSGAELVRPGSSVKISCKASGYAFSYYWMNWVKQRPGQGLEWIGQIYPGDGDTNYNGKFKGKATLTADKSSSTAYMQLSSLTSEDSAVYFCARSHGNYFAYWGQGTLVTVSA VL: DIVMTQSPAIMSASLGERVTMTCTASSSISSSYLHWYQQKPGSSPKLWIYSTSNLASGVPARFSGSGSGTSYSLTISSMEAEDAATYYCHQYHRSPLAFGAGTKLELKR | 6.7 | 1.8
7 | PA2LR3-P1H4 (chimeric) (antibody, V domains shown) VH: EVQLQQSGAELVRPGSSVKISCKASGYVFGNYWMNWVKQRPGQGLEWIGQIYPGDGDTNYNGKFKGKATLTADKSSSTAYMQLSSLTSEDSAVYFCARSHGNYFPYWGQGTLVTVSA VL: QIVLTQSPAIMSASLGERVTMTCTASSSVSSSYLHWYQQKPGSSPKLWIYSTSNLASGVPARFSGSGSGTSYSLTISSMEAEDAATYYCQQWSSYPLTFGAGTKLELKR | 21 | 33.5
8 | PA2LR3-P4B1 (chimeric) (antibody, human IgG1, kappa, V domains shown) VH: EVQLQQSGAELVRPGSSVKISCKASGFAFSNYWMNWVKQRPGQGLEWIGQIYPGDGDTNFNGKFKGRAILTADISSNTAYMQLSSLTSEDSAVYFCARSHGNYFPYWGQGTLVTVSA VL: QIVLTQSPAIMSASLGERVTMTCTASSSVSSSYLHWYQQKPGSSPKLWIYSTSNLASGVPARFSGSGSGTSYSLTISSMEAEDAATYYCHQYHRSPLTFGAGTKLELKR | 1.28 | 1.41
9 | PA2LR3-P4G10 (chimeric) (antibody, V domains shown) VH: EVQLQQFGAELVRPGSSVKISCKASGYAFSYYWMNWVKQRPGQGLEWIGQIYPGDGDTNYNGKFKGKATLTADKSSSTAYMQLSSLTSEDSAVYFCARSHGNYFAYWGQGTLVTVSA VL: DIVLTQSPAIMSASLGERVTMTCTASSSVSSSYLHWYQQKPGSSPKLWIYSTSNLASGVPARFSGSGSGTSYSLTISSMEAEDAATYYCQQWSSNPLTFGAGTKLELKR | 1.19 | 1.35
10 | PA2LR3-P3B8 (chimeric) (antibody, V domains shown) VH: EVQLQQSGAELVRPGSSVKISCKASGFAFSNYWMNWVKQRPGQGLEWIGQIYPGDGDTNFNGKFKGRAILTADISSNTAYMQLSSLTSEDSAVYFCARSHGNYFPYWGQGTLVTVSA VL: DIVMTQSPAIMSASLGERVTMTCTASSSVSSSYLHWYQQKPGSSPKLWIYGTSNLASGVPVRFSGSGSGTSYSLTISSMEAEDAATYYCQQWSSYPLTFGAGTKLELKR | 71 | –
11 | PA2LR3-P2E5 (chimeric) (antibody, V domains shown) VH: EVQLQQSGAELVRPGSSVKISCKASGYAFRDYWMNWVKQRPGQGLEWIGQIYPGDGATNYIGKFKGKATLTADKSSSTAYMQLSSLTSEDSAVYFCARSHGNYFPYWGHGTLVTVSA VL: QIVLTQSPAIMSASLGERVTMTCTASSSVSSSYLHWYQQKPGSSPKLWIYSTSNLASGVPARFSGSGSGTSYSLTISSMEAEDAATYYCQQWSSYPLTFGAGTKLELKR | 10 | 3.2
